Test results reported in the supplement of paper PMC9112550, “Optimization of the antimicrobial peptide Bac7 by deep mutational scanning” (BMC Biology, 2022).

system: Escherichia coli TOP10; experiment: shrunken log2 fold change of peptide-encoding DNA abundance (4.5 h post-induction vs induction); higher = less antimicrobial activity (less host growth inhibition); conditions: time post-induction: 4.5 h; library: site-saturation at positions 5, 18, 19, 20
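Also: peptides expressed intracellularly from a pBAD plasmid library in pooled LB shake-flask culture, induced with 0.3% L-arabinose, DNA abundance read by NGS, three biological replicates, DESeq2 with apeglm shrinkage.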

Question: With RRIRYRPPRLPRPRPRPQPVPRP as the sequence, how does the “shrunken log2 fold change” value read?
Answer: -0.258

Question: Which “shrunken log2 fold change” value does the source give for RRIRTRPPRLPRPRPRPHKEPRP here?
Answer: -0.0263

Question: Which “shrunken log2 fold change” value does the source give for RRIRFRPPRLPRPRPRPRHGPRP here?
Answer: 0.155

Question: How did the “shrunken log2 fold change” value turn out when RRIRARPPRLPRPRPRPNWQPRP was run?
Answer: -0.0264

Question: RRIRCRPPRLPRPRPRPKTWPRP was tested. Which “shrunken log2 fold change” value did it give?
Answer: 0.0688

Question: For RRIRLRPPRLPRPRPRPQIYPRP, which “shrunken log2 fold change” value is on record?
Answer: -0.17

Question: How did the “shrunken log2 fold change” value turn out when RRIRWRPPRLPRPRPRPKKQPRP was run?
Answer: 0.176

Question: RRIRLRPPRLPRPRPRPHYMPRP was tested. Which “shrunken log2 fold change” value did it give?
Answer: -0.969

Question: Which “shrunken log2 fold change” value does the source give for RRIRRRPPRLPRPRPRPEEWPRP here?
Answer: -0.00804

Question: Which “shrunken log2 fold change” value does the source give for RRIRNRPPRLPRPRPRPWRKPRP here?
Answer: -0.0392

Question: How did the “shrunken log2 fold change” value turn out when RRIRSRPPRLPRPRPRPWTNPRP was run?
Answer: -0.0183

Question: Which “shrunken log2 fold change” value does the source give for RRIRVRPPRLPRPRPRPPYVPRP here?
Answer: -0.153

Question: With RRIRDRPPRLPRPRPRPMNIPRP as the sequence, how does the “shrunken log2 fold change” value read?
Answer: -0.0931

Question: Which “shrunken log2 fold change” value does the source give for RRIRMRPPRLPRPRPRPNEMPRP here?
Answer: 0.318

Question: For RRIRFRPPRLPRPRPRPVDWPRP, which “shrunken log2 fold change” value is on record?
Answer: 0.194

Question: Which “shrunken log2 fold change” value does the source give for RRIRDRPPRLPRPRPRPLMKPRP here?
Answer: -0.19

Question: For RRIRPRPPRLPRPRPRPFPMPRP, which “shrunken log2 fold change” value is on record?
Answer: -0.175

Question: For RRIRPRPPRLPRPRPRPLTRPRP, which “shrunken log2 fold change” value is on record?
Answer: 0.103

Question: How did the “shrunken log2 fold change” value turn out when RRIRSRPPRLPRPRPRPPIIPRP was run?
Answer: -0.135

Question: With RRIRQRPPRLPRPRPRPTKWPRP as the sequence, how does the “shrunken log2 fold change” value read?
Answer: 0.25

Question: With RRIRARPPRLPRPRPRPAASPRP as the sequence, how does the “shrunken log2 fold change” value read?
Answer: 0.928

Question: With RRIRMRPPRLPRPRPRPNGFPRP as the sequence, how does the “shrunken log2 fold change” value read?
Answer: 0.207

Question: With RRIRSRPPRLPRPRPRPRDHPRP as the sequence, how does the “shrunken log2 fold change” value read?
Answer: 0.0497

Question: How did the “shrunken log2 fold change” value turn out when RRIRLRPPRLPRPRPRPELQPRP was run?
Answer: 0.328

Question: With RRIRLRPPRLPRPRPRPLKFPRP as the sequence, how does the “shrunken log2 fold change” value read?
Answer: -0.57

Question: With RRIRRRPPRLPRPRPRPPPHPRP as the sequence, how does the “shrunken log2 fold change” value read?
Answer: 0.968

Question: Which “shrunken log2 fold change” value does the source give for RRIRGRPPRLPRPRPRPFKHPRP here?
Answer: -0.527

Question: How did the “shrunken log2 fold change” value turn out when RRIRHRPPRLPRPRPRPKPPPRP was run?
Answer: 0.55

Question: Which “shrunken log2 fold change” value does the source give for RRIRLRPPRLPRPRPRPKKTPRP here?
Answer: 0.0684

Question: With RRIRMRPPRLPRPRPRPCSFPRP as the sequence, how does the “shrunken log2 fold change” value read?
Answer: 0.0622

Question: With RRIRIRPPRLPRPRPRPHWDPRP as the sequence, how does the “shrunken log2 fold change” value read?
Answer: -0.248

Question: Which “shrunken log2 fold change” value does the source give for RRIRRRPPRLPRPRPRPSCAPRP here?
Answer: 0.452

Question: With RRIRMRPPRLPRPRPRPDHHPRP as the sequence, how does the “shrunken log2 fold change” value read?
Answer: -0.111

Question: RRIRERPPRLPRPRPRPYINPRP was tested. Which “shrunken log2 fold change” value did it give?
Answer: -0.248

Question: For RRIRWRPPRLPRPRPRPQLEPRP, which “shrunken log2 fold change” value is on record?
Answer: 0.0296

Question: RRIRRRPPRLPRPRPRPDTVPRP was tested. Which “shrunken log2 fold change” value did it give?
Answer: 0.0777

Question: For RRIRYRPPRLPRPRPRPIAHPRP, which “shrunken log2 fold change” value is on record?
Answer: -0.901

Question: How did the “shrunken log2 fold change” value turn out when RRIRIRPPRLPRPRPRPNRFPRP was run?
Answer: -0.174

Question: RRIRMRPPRLPRPRPRPDADPRP was tested. Which “shrunken log2 fold change” value did it give?
Answer: 3.36

Question: With RRIRQRPPRLPRPRPRPMCLPRP as the sequence, how does the “shrunken log2 fold change” value read?
Answer: -0.184

Question: How did the “shrunken log2 fold change” value turn out when RRIRHRPPRLPRPRPRPQNSPRP was run?
Answer: -0.423

Question: With RRIRERPPRLPRPRPRPYGQPRP as the sequence, how does the “shrunken log2 fold change” value read?
Answer: -0.315

Question: Which “shrunken log2 fold change” value does the source give for RRIRRRPPRLPRPRPRPDMDPRP here?
Answer: -0.108

Question: For RRIRHRPPRLPRPRPRPFEMPRP, which “shrunken log2 fold change” value is on record?
Answer: -0.505

Question: With RRIRERPPRLPRPRPRPTSRPRP as the sequence, how does the “shrunken log2 fold change” value read?
Answer: 0.249

Question: For RRIRQRPPRLPRPRPRPVILPRP, which “shrunken log2 fold change” value is on record?
Answer: -0.0369

Question: Which “shrunken log2 fold change” value does the source give for RRIRVRPPRLPRPRPRPLTRPRP here?
Answer: 0.196

Question: Which “shrunken log2 fold change” value does the source give for RRIRMRPPRLPRPRPRPMITPRP here?
Answer: -0.0461

Question: With RRIRERPPRLPRPRPRPNTRPRP as the sequence, how does the “shrunken log2 fold change” value read?
Answer: -0.0785

Question: How did the “shrunken log2 fold change” value turn out when RRIRIRPPRLPRPRPRPSIDPRP was run?
Answer: -0.342

Question: With RRIRERPPRLPRPRPRPGCFPRP as the sequence, how does the “shrunken log2 fold change” value read?
Answer: 0.199

Question: For RRIRLRPPRLPRPRPRPETPPRP, which “shrunken log2 fold change” value is on record?
Answer: 0.178

Question: How did the “shrunken log2 fold change” value turn out when RRIRPRPPRLPRPRPRPFFGPRP was run?
Answer: 0.0908

Question: RRIRARPPRLPRPRPRPTTRPRP was tested. Which “shrunken log2 fold change” value did it give?
Answer: 0.61

Question: Which “shrunken log2 fold change” value does the source give for RRIRIRPPRLPRPRPRPYSNPRP here?
Answer: -0.385

Question: With RRIRMRPPRLPRPRPRPKPKPRP as the sequence, how does the “shrunken log2 fold change” value read?
Answer: 0.476

Question: RRIRTRPPRLPRPRPRPPTKPRP was tested. Which “shrunken log2 fold change” value did it give?
Answer: 0.674

Question: Which “shrunken log2 fold change” value does the source give for RRIRDRPPRLPRPRPRPEKGPRP here?
Answer: 0.71

Question: RRIRVRPPRLPRPRPRPPKGPRP was tested. Which “shrunken log2 fold change” value did it give?
Answer: 0.18

Question: RRIRARPPRLPRPRPRPKDLPRP was tested. Which “shrunken log2 fold change” value did it give?
Answer: -0.0598

Question: With RRIRYRPPRLPRPRPRPHVVPRP as the sequence, how does the “shrunken log2 fold change” value read?
Answer: -0.261

Question: RRIRYRPPRLPRPRPRPPKEPRP was tested. Which “shrunken log2 fold change” value did it give?
Answer: -0.00185

Question: For RRIRSRPPRLPRPRPRPLFFPRP, which “shrunken log2 fold change” value is on record?
Answer: -0.172

Question: RRIRWRPPRLPRPRPRPHTQPRP was tested. Which “shrunken log2 fold change” value did it give?
Answer: -0.56

Question: How did the “shrunken log2 fold change” value turn out when RRIRKRPPRLPRPRPRPAVLPRP was run?
Answer: -0.025

Question: RRIRERPPRLPRPRPRPTFRPRP was tested. Which “shrunken log2 fold change” value did it give?
Answer: -0.00937

Question: RRIRQRPPRLPRPRPRPMSKPRP was tested. Which “shrunken log2 fold change” value did it give?
Answer: -0.0682

Question: RRIRGRPPRLPRPRPRPVRRPRP was tested. Which “shrunken log2 fold change” value did it give?
Answer: 0.977

Question: How did the “shrunken log2 fold change” value turn out when RRIRGRPPRLPRPRPRPTASPRP was run?
Answer: 1.49

Question: Which “shrunken log2 fold change” value does the source give for RRIRERPPRLPRPRPRPEQMPRP here?
Answer: -6.54e-05

Question: With RRIRARPPRLPRPRPRPGFLPRP as the sequence, how does the “shrunken log2 fold change” value read?
Answer: 0.426

Question: For RRIRFRPPRLPRPRPRPVDNPRP, which “shrunken log2 fold change” value is on record?
Answer: -0.0449

Question: RRIRLRPPRLPRPRPRPYMAPRP was tested. Which “shrunken log2 fold change” value did it give?
Answer: -0.608

Question: With RRIRPRPPRLPRPRPRPCAYPRP as the sequence, how does the “shrunken log2 fold change” value read?
Answer: -0.311

Question: RRIRFRPPRLPRPRPRPQLQPRP was tested. Which “shrunken log2 fold change” value did it give?
Answer: 0.0569
